Experiment [1] addresses T1, human wildtype FLT3 (hFLT3 wt) (Homo sapiens, UniProt P36888).
T1 construct: expressed in transfected cells; host or cells: Ba/F3 cells, retrovirally transduced with MSCV-IRES-YFP (pMIY) vector
T1 sequence (P36888 27-993): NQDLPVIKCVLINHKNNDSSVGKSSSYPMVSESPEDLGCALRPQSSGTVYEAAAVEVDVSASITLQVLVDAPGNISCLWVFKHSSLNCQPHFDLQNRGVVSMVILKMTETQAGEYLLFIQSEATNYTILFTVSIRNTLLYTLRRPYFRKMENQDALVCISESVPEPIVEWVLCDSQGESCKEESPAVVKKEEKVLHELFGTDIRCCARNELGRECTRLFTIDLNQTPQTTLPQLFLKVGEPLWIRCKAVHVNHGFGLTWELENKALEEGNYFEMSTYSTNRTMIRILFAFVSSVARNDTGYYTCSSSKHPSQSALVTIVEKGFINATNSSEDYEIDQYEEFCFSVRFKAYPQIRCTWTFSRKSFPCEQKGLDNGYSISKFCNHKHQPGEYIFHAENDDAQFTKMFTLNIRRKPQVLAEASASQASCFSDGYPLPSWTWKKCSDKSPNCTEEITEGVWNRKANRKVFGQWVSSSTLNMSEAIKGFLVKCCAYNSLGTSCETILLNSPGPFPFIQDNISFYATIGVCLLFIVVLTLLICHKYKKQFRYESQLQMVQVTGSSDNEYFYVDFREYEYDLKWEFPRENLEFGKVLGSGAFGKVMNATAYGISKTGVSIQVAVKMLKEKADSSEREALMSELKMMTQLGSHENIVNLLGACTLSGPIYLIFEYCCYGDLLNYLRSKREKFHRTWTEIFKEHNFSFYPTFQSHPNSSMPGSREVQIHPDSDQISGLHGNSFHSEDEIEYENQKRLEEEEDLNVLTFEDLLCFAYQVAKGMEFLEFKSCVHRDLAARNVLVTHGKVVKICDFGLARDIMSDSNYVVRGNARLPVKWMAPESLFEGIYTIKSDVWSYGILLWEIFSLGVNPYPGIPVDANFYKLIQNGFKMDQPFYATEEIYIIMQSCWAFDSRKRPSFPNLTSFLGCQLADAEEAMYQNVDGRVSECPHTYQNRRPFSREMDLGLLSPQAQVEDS
In words: Cell surface binding to Ba/F3 hFLT3 wt, flow cytometry. On the procedure: (§1) For antibody binding studies, cells were stained on ice with primary mouse, rat or human anti-FLT3 antibodies (in house) and secondary antibody Goat F(ab′)2 Anti-Human Ig-PE (2012-09), Goat Anti-Mouse IgG (H+L)-PE (1032-09) or Goat Anti-Rat IgG (H+L)-PE (3052-09) purchased from Southern Biotech. For internalization experiments, cells incubated with anti-FLT3 antibodies were washed and incubated for 30 min at 4° C. or 37° C. followed by staining with secondary antibody.
For FLT3 expression analysis, cells were stained on ice with primary mouse anti-FLT3-AF647 antibodies for 30 min. For antibody binding studies, cells were stained on ice with chimeric (20D9) or humanized anti-FLT3 antibodies (in house) or IgG1 control with or without Leu234Ala/Leu235Ala (LALA)-mutation in the Fc region and secondary antibody goat F(ab′)2 Anti-Human IgG-AF647 (2042-31) purchased from Southern Biotech for 30 min, respectively. Binding and expression were subsequently measured at the flow cytometer (BD FACSCanto II) and the results were evaluated with FlowJo version 10.8.1.

For experiment [2], the target named is T2, Ba/F3 cells expressing human wildtype FLT3 (Homo sapiens, UniProt P36888).
T2 construct: expressed in transfected cells; host or cells: Ba/F3 cells, retrovirally transduced with MSCV-IRES-YFP (pMIY) vector
T2 sequence (P36888 27-993): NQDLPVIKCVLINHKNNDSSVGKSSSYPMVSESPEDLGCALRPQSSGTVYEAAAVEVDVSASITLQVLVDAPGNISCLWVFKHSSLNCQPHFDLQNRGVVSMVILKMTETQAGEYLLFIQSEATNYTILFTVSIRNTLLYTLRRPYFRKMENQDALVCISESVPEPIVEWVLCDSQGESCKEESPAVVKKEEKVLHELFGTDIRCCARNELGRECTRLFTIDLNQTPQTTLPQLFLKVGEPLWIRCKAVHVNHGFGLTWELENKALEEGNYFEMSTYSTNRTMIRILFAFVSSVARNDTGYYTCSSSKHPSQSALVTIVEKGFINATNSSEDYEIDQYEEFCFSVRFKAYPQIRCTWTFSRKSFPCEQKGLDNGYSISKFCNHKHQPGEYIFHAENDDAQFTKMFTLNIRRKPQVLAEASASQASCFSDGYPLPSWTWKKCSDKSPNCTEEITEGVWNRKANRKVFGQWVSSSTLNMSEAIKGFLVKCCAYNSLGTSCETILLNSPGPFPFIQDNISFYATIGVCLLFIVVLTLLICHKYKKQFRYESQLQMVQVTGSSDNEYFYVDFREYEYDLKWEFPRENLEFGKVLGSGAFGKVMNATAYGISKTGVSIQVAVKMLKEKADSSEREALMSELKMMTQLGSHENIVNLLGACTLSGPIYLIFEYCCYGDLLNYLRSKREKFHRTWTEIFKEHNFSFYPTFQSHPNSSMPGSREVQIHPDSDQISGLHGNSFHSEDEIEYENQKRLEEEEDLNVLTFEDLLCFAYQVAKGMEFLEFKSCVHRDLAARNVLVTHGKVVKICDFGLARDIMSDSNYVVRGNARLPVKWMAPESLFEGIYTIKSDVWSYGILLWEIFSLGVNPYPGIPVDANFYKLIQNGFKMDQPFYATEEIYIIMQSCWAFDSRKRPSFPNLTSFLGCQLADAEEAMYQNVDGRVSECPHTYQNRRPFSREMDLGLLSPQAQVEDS
In words: Temperature induced internalization in Ba/F3-FLT3, flow cytometry. The class given is cell-based. Conditions: 30 min at 37° C. compared to 4° C. The source says:
FIG. 1: Evaluation of epitope specificity and internalization capability of anti-FLT3 monoclonal antibodies. (A) Affinity of seven anti-FLT3 monoclonal antibody (mab) clones to recombinant human FLT3 measured in enzyme-linked immunosorbent assay (ELISA) normalized to the binding of the antibodies to BSA control. […] (B) Schematic FLT3 receptor. Black arrows indicate common mutations and blue arrows indicate the three identified epitopes of seven anti-FLT3 antibodies analyzed in linear epitope mapping by PEPperPRINT. Figure was created with BioRender.com. (C) Binding and temperature induced internalization of anti-FLT3 antibodies in Ba/F3 cells expressing human wildtype FLT3. Internalization was induced by incubation for 30 min at 37° C. (grey) compared to 4° C. (black). Remaining surface-bound antibody was detected in flow cytometry. MFI was normalized to control human IgG1 binding. MFI=mean fluorescence intensity. […] (D) Cell surface binding of 20D9 mab or control human IgG1 antibody to Ba/F3 cells stably expressing pMIY (Ba/F3-pMIY) empty vector (ev), human wildtype (hFLT3 wt) or ITD mutant human FLT3 (hFLT3ITD) was measured in flow cytometry. Mean±s.d. of n=3. (E) Temperature induced internalization of 4B12 mab in MOLM-13 (FLT3 positive) cells after 30 min incubation at 37° C. compared to 4° C. and HL-60 (FLT3 negative) after 37° C. incubation assessed in immunofluorescence staining. Red=FLT3 staining by 4B12, Green=membrane staining by Vybrant DiO, Blue=nuclear staining by DAPI. Scale bar 5 μm. Representative pictures are shown. (F) Cell surface binding of 20D9 mab or control hIgG1 antibody to Ba/F3-pMIY ev, hFLT3 wt, murine (mFLT3 wt) or cynomolgues monkey FLT3 (cynoFLT3 wt) was measured in flow cytometry. Mean±s.d. of n=3. (G) Cell surface binding of 20D9 mab or control hIgG1 antibody to Ba/F3-PMIY ev, hFLT3 wt or epitope mutant FLT3 (hFLT3/S50P/P54R) measured in flow cytometry. Mean±s.d. of n=3. (H) Cell surface binding of 20D9 mab or control hIgG1 antibody to Ba/F3-PMIY ev, hFLT3 wt or human CD64 (hCD64) measured in flow cytometry. Mean±s.d. of n=3. […]

Experiment [3] relates to MOLM-13 (FLT3 positive) cells. In words: Temperature induced internalization in MOLM-13, flow cytometry. The note with it: 30 min at 37° C. compared to 4° C. The class given is cell-based, human. On the procedure: as §1
(In general: A flow cytometer gives signals particle by particle.)

B1: 20D9: chimeric (rat variable regions, human IgG1) anti-FLT3 monoclonal antibody; VH SEQ ID NO: 5, VL SEQ ID NO: 6 (antibody, V domains shown)
VH: DVMLVESGGGLVQPGRSLKLSCVASGFTFNNYWMTWIRQAPGKGLEWIASITKTGGGTYYPDSVKGRFTISRDNAKSTLYLQMNSLRSEDTATYYCTTLQQLGVMDAWGQGASVTVSSA
VL: DVQMTQSPSVLSASVGDRITLNCKASQNINKELNWYQQKLGEAPKLLIYNTNNLQTGIPSRFSGSGSGTDYTLTISSLQPEDVATYFCFQHKSWPLTFGSGTKLEIKR
modifications: Clone 20D9, heavy chain variable region without a signal seqeunce; Clone 20D9, light chain variable region without a signal seqeunce
For B1, the “Binding to Ba/F3-FLT3 cell line by flow cytometry” value in experiment [1] is “specifically bound”. Further, the “Internalization in Ba/F3-FLT3” value in experiment [2] is recorded as 79%. In addition, the “Internalization in MOLM-13” value in experiment [3] amounted to 64%.

B2: 4B12: chimeric anti-FLT3 antibody from rat; VH SEQ ID NO: 9, VL SEQ ID NO: 10 (antibody, V domains shown)
VH: QVQLQQSGPGLVQPSQTLSLTCTVSGFSLTSYNVNWVRQPPGKGLEWIGAMWRGGGTDYNPALKSRLSISRDTSKSQVFLKMNRLQTEDTAIYFCTRGFGDYWGQGVMVTVSSA
VL: DIQMTQTPLSLSVAIGQSASISCKSSQSLKYSDGKTYLNWVFQSPGQSPKRLIYQVSKLDSGVPDRFSGTGSETDFTLKISRVEAEDLGVYYCCQGSYSPSTFGAGTKLELKR
modifications: Clone 4B12, heavy chain variable region without a signal sequence; Clone 4B12, light chain variable region without a signal seqeunce
On to B2, for which the “Binding to Ba/F3-FLT3 cell line by flow cytometry” value in experiment [1] is on record as “specifically bound”. In experiment [2], the “Internalization in Ba/F3-FLT3” value is 86%. For the same molecule, the “Internalization in MOLM-13” value in experiment [3] is listed as 58%.

For the origin of these results see US20250049939A1, “NOVEL FLT3 ANTIBODIES AND ANTIBODY-DRUG-CONJUGATES BASED THEREON, THERAPEUTIC METHODS AND USES THEREOF IN COMBINATION WITH TYROSINE KINASE INHIBITORS” (TUBULIS GmbH, priority 2021, published 2025).
